The Human Domainome abundance scans (Beltran et al. 2025)
± gives the uncertainty stated by the source.

B1: Histone H1t, residues 44 to 112; numbered along this chain, P22492 (parent)
chain: VSKLITEALSVSQERVGMSLVALKKALAAAGYDVEKNNSRIKLSLKSLVNKGILVQTRGTGASGSFKLS

Variants of: B1
Experiment: abundance fitness (aPCA) (normalised: wild type 0, dead -1); higher = more abundant; growth selection in yeast, the domain comes from the species named
Conditions: Homo sapiens
In the case of VSKLITEALSVSQERVGMSLVALKKALADAGYDVEKNNSRIKLSLKSLVNKGILVQTRGTGASGSFKLS [A29D], the abundance fitness is reported as -0.085 ± 0.053. VSKLITEALSVSQERVGMSLVALKKALAWAGYDVEKNNSRIKLSLKSLVNKGILVQTRGTGASGSFKLS [A29W] showed an abundance fitness of -0.323 ± 0.059. With VSKLITEALSVSQERVGMSLVALKKALAAEGYDVEKNNSRIKLSLKSLVNKGILVQTRGTGASGSFKLS [A30E] the abundance fitness was -0.404 ± 0.067. VSKLITEALSVSQERVGMSLVALKKALAAAGYDVEKNNSRIKLSLKSLVNKGILVQTVGTGASGSFKLS [R58V] gave an abundance fitness of -0.089 ± 0.034. VSKLITEALSVSQERVGMSLVALKKALAAAGYDVEKNNSRIKLSLKSLVNKGILVQTWGTGASGSFKLS [R58W] gave an abundance fitness of -0.151 ± 0.042. VSKLITEALSVSQERVGMSLVALKKALAAAGYDVEKNNPRIKLSLKSLVNKGILVQTRGTGASGSFKLS [S39P] gave an abundance fitness of -0.445 ± 0.045. With VSKLITEALSVSSERVGMSLVALKKALAAAGYDVEKNNSRIKLSLKSLVNKGILVQTRGTGASGSFKLS [Q13S] the abundance fitness was -0.242 ± 0.044. VSKLITEALSVSQERVGMSLVALKKALAAAGYDVEKNNSRIKDSLKSLVNKGILVQTRGTGASGSFKLS [L43D] showed an abundance fitness of 0.036 ± 0.13. Variant VSKLITEALSVSQERVGMSLVALKKALAAAGYDVEKNNSRIKLSCKSLVNKGILVQTRGTGASGSFKLS [L45C] has an abundance fitness of -0.425 ± 0.21. With VSKLITEALSVSQERVGMSLVALSKALAAAGYDVEKNNSRIKLSLKSLVNKGILVQTRGTGASGSFKLS [K24S] the abundance fitness was -0.656 ± 0.058. Variant VSKLITEALSVSQERVGMSLVALKKALAAAGYDVEKNNSRIKLSLKSCVNKGILVQTRGTGASGSFKLS [L48C] has an abundance fitness of -0.589 ± 0.13. VSKLITEALSVSQERVGMSLVALKKALAAAGYDVEKNNSRIKLSLKSLVNKGILVQTRGTGPSGSFKLS [A62P] gave an abundance fitness of -0.013 ± 0.026. In the case of VSKLITEALSVSQERVGMSLVALKKALAAAGYDVEKNNSRIKLSLKSLVNKGILVQTRGTGRSGSFKLS [A62R], the abundance fitness is reported as -0.072 ± 0.028. With VSKLITEALSVSQERVGMSLVALKKALAAAGYDVEKNNSRRKLSLKSLVNKGILVQTRGTGASGSFKLS [I41R] the abundance fitness was -0.514 ± 0.034. VSKLISEALSVSQERVGMSLVALKKALAAAGYDVEKNNSRIKLSLKSLVNKGILVQTRGTGASGSFKLS [T6S] showed an abundance fitness of -0.168 ± 0.082. In the case of VSKLITEALSVSQERVGMSLVALKKALAAAGYDIEKNNSRIKLSLKSLVNKGILVQTRGTGASGSFKLS [V34I], the abundance fitness is reported as -0.123 ± 0.093. Variant VSKLITEALSVSQERVWMSLVALKKALAAAGYDVEKNNSRIKLSLKSLVNKGILVQTRGTGASGSFKLS [G17W] has an abundance fitness of -0.49 ± 0.095. Work on VSKLITEALSVSQERVKMSLVALKKALAAAGYDVEKNNSRIKLSLKSLVNKGILVQTRGTGASGSFKLS [G17K] yielded an abundance fitness of 0.157 ± 0.046. Work on VSKLITEALSVSQESVGMSLVALKKALAAAGYDVEKNNSRIKLSLKSLVNKGILVQTRGTGASGSFKLS [R15S] yielded an abundance fitness of -0.089 ± 0.046. With VSKLITEALSVSQERVGMSLVALKKALAAAGYDVEKNNSRIKLSLKSLVNKWILVQTRGTGASGSFKLS [G52W] the abundance fitness was -0.457 ± 0.2. In the case of VSKLITEALSVSQERVGMSLVALKKALAAAGYDVEKNNSRIKLSLISLVNKGILVQTRGTGASGSFKLS [K46I], the abundance fitness is reported as -0.129 ± 0.056. Variant VSKLITEALSVSQERVGMSLVALKKALAAAGYDVEKNNSRIKLSLCSLVNKGILVQTRGTGASGSFKLS [K46C] has an abundance fitness of -0.628 ± 0.15. With VSKLITEALSVSQERVGMSLVALKKALAAAGYDVEKNNSRIKLSLKSLVNKGILHQTRGTGASGSFKLS [V55H] the abundance fitness was -0.08 ± 0.1. With VSKLITEALSVSQERVGMSLVALKKALAAAGYDVEKNNSRIKLSLKSLVNKGILVQTRGGGASGSFKLS [T60G] the abundance fitness was -0.033 ± 0.044. Variant VSKLITEALSVSQERVGMSLVALKKALAAAGYDVEKNNSRIKLSLKSLVNKGILVQTRGTGASGSFPLS [K67P] has an abundance fitness of -0.202 ± 0.054. For VSKLITEALSVSQERVGMSLVALKKALAAAGYDVEKNNSRIKLSLKSLVNKGILVQTRGTGASGSFTLS [K67T], the abundance fitness was -0.193 ± 0.04. Variant VSKLITEALSVFQERVGMSLVALKKALAAAGYDVEKNNSRIKLSLKSLVNKGILVQTRGTGASGSFKLS [S12F] has an abundance fitness of -0.038 ± 0.032. VSKLITEALSVHQERVGMSLVALKKALAAAGYDVEKNNSRIKLSLKSLVNKGILVQTRGTGASGSFKLS [S12H] showed an abundance fitness of -0.353 ± 0.13. Variant VSKLITEALSVSQERVGMSLVALKKALAAAGYDVEKNNSRIKLSLKSLVNKGILVQTRGTAASGSFKLS [G61A] has an abundance fitness of -0.103 ± 0.037. VSKLITEALSVSQERVGMSLVALKKALAAAGYDVEKNNSRIKLSLKSLVNKGILVQTRGTWASGSFKLS [G61W] showed an abundance fitness of -0.176 ± 0.042. Variant VSKLITEALSVSQERVGMSLVALKKALAAAGYDVEKNNSRIALSLKSLVNKGILVQTRGTGASGSFKLS [K42A] has an abundance fitness of -0.098 ± 0.025. Variant VSKLITEALSVSQERVGMSLVALKKALAAAGYDVEKNASRIKLSLKSLVNKGILVQTRGTGASGSFKLS [N38A] has an abundance fitness of 0.106 ± 0.087. Work on VSKLITEALSVSQERVGMSMVALKKALAAAGYDVEKNNSRIKLSLKSLVNKGILVQTRGTGASGSFKLS [L20M] yielded an abundance fitness of -0.022 ± 0.041. Work on VSKLITEALMVSQERVGMSLVALKKALAAAGYDVEKNNSRIKLSLKSLVNKGILVQTRGTGASGSFKLS [S10M] yielded an abundance fitness of -0.175 ± 0.034. In the case of VSKLITEALFVSQERVGMSLVALKKALAAAGYDVEKNNSRIKLSLKSLVNKGILVQTRGTGASGSFKLS [S10F], the abundance fitness is reported as -0.655 ± 0.034. VSKLITEALKVSQERVGMSLVALKKALAAAGYDVEKNNSRIKLSLKSLVNKGILVQTRGTGASGSFKLS [S10K] showed an abundance fitness of -0.17 ± 0.062. Work on VSKLITEYLSVSQERVGMSLVALKKALAAAGYDVEKNNSRIKLSLKSLVNKGILVQTRGTGASGSFKLS [A8Y] yielded an abundance fitness of -0.345 ± 0.043. In the case of VSKLITEALSVSQERVGMSLVALKKALAAAGYDVPKNNSRIKLSLKSLVNKGILVQTRGTGASGSFKLS [E35P], the abundance fitness is reported as -0.31 ± 0.034. For VSKLITEALSVSQERVGMSLVALKKALMAAGYDVEKNNSRIKLSLKSLVNKGILVQTRGTGASGSFKLS [A28M], the abundance fitness was -0.089 ± 0.036.
